Measured values taken from the Immune Epitope Database (IEDB).

How the values were obtained:
Assay in all cases: IEDB peptide-MHC binding, purified MHC/competitive/radioactivity; filed as Kd, often an IC50 or EC50 that approximates it; ≥ and ≤ were set here for values at or beyond the usual limits of such assays
Conditions in all cases: source organism: Homo sapiens
[1] = biological target: HLA-A*68:01
[2] = biological target: HLA-A*11:01
[3] = biological target: HLA-A*03:01
[4] = biological target: HLA-A*31:01
[5] = biological target: HLA-A*33:01

| Sequence | Kd [1] [nM] | Kd [2] [nM] | Kd [3] [nM] | Kd [4] [nM] | Kd [5] [nM] |
| --- | --- | --- | --- | --- | --- |
| LLGPGRPYR | 1090 | 656 | 570 | 11 | 106 |
| MSLQRQFLR | 8.5 | 8.3 | 54 | 8.3 | 14 |
